Laboratory results reported in PMC7545189, “Structural characterization of the ICOS/ICOS-L immune complex reveals high molecular mimicry by therapeutic antibodies” (Nature Communications, 2020).
Substitutions are numbered along the chain they refer to. In names and notes the source's numbering stands.

T1: human ICOS ectodomain N110Q, His-tagged, immobilised for STIM003 binding (human, UniProt Q9Y6W8 21-138, N110Q)
T1 sequence: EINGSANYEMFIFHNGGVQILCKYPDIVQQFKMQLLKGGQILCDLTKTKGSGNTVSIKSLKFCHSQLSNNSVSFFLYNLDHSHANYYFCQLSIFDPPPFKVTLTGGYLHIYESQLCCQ

T2: human ICOS ectodomain (residues 21-138), His-tagged, immobilised on Ni-NTA biosensors (human, UniProt Q9Y6W8 21-138)
T2 chain: T1 sequence with Q90N

T3: human ICOS ectodomain N110Q (N110 glycan knock-out mutant), analyte (human, UniProt Q9Y6W8 21-138, N110Q)
T3 sequence: T1 sequence

T4: human ICOS ectodomain (residues 21-138), untagged, disulfide-linked homodimer (human, UniProt Q9Y6W8 21-138)
T4 chain: T1 sequence with Q90N

T5: human ICOS-L ectodomain (residues 19-248), crystallised in complexes (human, UniProt O75144 19-248)
T5 construct: not shown: Venus (monomeric variant), C-terminal, cleaved; His6, C-terminal, cleaved
T5 sequence (looked up): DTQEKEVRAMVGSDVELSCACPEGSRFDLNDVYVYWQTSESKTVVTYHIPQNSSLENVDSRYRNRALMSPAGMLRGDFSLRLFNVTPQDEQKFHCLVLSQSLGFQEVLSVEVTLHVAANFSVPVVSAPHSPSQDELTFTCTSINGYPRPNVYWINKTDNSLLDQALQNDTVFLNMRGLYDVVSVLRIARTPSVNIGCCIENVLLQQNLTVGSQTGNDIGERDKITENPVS

T6: human ICOS-L ectodomain (residues 19-248), untagged monomer (human, UniProt O75144 19-248)
T6 construct: Residues of the TEV site probably remain at the C-terminus after cleavage; also called ICOS-L ectodomain monomer; CD275; source: HEK 293F, transiently transfected, purified (HisTrap Ni-NTA, TEV digestion, second Ni-NTA, Superdex 200); not shown: Venus (monomeric variant), C-terminal, cleaved; His6, C-terminal, cleaved
T6 sequence (looked up): T5 sequence (looked up)

T7: human ICOS-L ectodomain (residues 19-248), His-tagged, immobilised on Ni-NTA biosensors (human, UniProt O75144 19-248)
T7 construct: also called ICOS ligand; CD275; source: HEK 293F, transiently transfected, purified from the supernatant (HisTrap Ni-NTA); not shown: His6, C-terminal, kept
T7 sequence (looked up): T5 sequence (looked up)

B1: STIM003 Fab (purified, for BLI) (Fab, V domains shown)
VH: EVQLVESGGGVVRPGGSLRLSCVASGVTFDDYGMSWVRQAPGKGLEWVSGINWNGGDTDYSDSVKGRFTISRDNAKNSLYLQMNSLRAEDTALYYCARDFYGSGSYYHVPFDYWGQGILVTVSS
VL: EIVLTQSPGTLSLSPGERATLSCRASQSVSRSYLAWYQQKRGQAPRLLIYGASSRATGIPDRFSGDGSGTDFTLSISRLEPEDFAVYYCHQYDMSPFTFGPGTKVDIK
notes: Fab heavy chain of STIM003; Fab light chain (kappa) of STIM003; Kappa light chain (KappaSelect purification); also called anti-ICOS monoclonal antibody; source: HEK 293F, transiently co-transfected LC and HC, purified (KappaSelect, MonoS, Superdex 200)
B2: STIM003 Fab (co-expressed with ICOS, for the crystal structure) (Fab, V domains shown)
VH: B1 VH
VL: B1 VL
notes: as the heavy chain of m12; as the light chain (kappa) of m12; source: HEK 293S (Gnt I-/-), co-transfected with ICOS C136A C137A N23Q, complex purified
B3: human ICOS-L ectodomain (residues 19-248), His-tagged, immobilised on Ni-NTA biosensors (ligand)
chain: T5 sequence (looked up)
B4: human ICOS ectodomain (residues 21-129), crystallised with ICOS-L and VNAR (domain or fragment, UniProt Q9Y6W8 21-129, looked up)
chain: EINGSANYEMFIFHNGGVQILCKYPDIVQQFKMQLLKGGQILCDLTKTKGSGNTVSIKSLKFCHSQLSNNSVSFFLYNLDHSHANYYFCNLSIFDPPPFKVTLTGGYLH
modifications: N-linked glycan at N110 seen in the structure (two GlcNAc and three mannose residues)
notes: not shown: Venus (monomeric variant), C-terminal, cleaved; His6, C-terminal, cleaved
B5: human ICOS ectodomain (residues 21-138), His-tagged, immobilised on Ni-NTA biosensors (receptor, UniProt Q9Y6W8 21-138, looked up)
chain: T1 sequence with Q90N
notes: human ICOS ectodomain, UniProtKB Q9Y6W8, residues 21-138, followed by a TEV cleavage site; The His6 tag of the vector lies C-terminal of TEV site and Venus, so the His-tagged form used for loading is probably the undigested ICOS-TEV-Venus-His6 fusion; also called inducible T-cell co-stimulator; CD278; source: HEK 293F, transiently transfected, purified from the supernatant (HisTrap Ni-NTA); not …
B6: human ICOS ectodomain (residues 21-138), untagged, disulfide-linked homodimer (receptor, UniProt Q9Y6W8 21-138, looked up)
chain: T1 sequence with Q90N
notes: human ICOS ectodomain, UniProtKB Q9Y6W8, residues 21-138; Residues of the TEV site probably remain at the C-terminus after cleavage; also called ICOS WT; ICOS disulfide-linked homodimers; source: HEK 293F, transiently transfected, purified (HisTrap Ni-NTA, TEV digestion, second Ni-NTA, Superdex 200); not shown: Venus (monomeric variant), C-terminal, cleaved; His6, C-terminal, cleaved
B7: human ICOS ectodomain N110Q (N110 glycan knock-out mutant), analyte (receptor, UniProt Q9Y6W8 21-138, looked up)
chain: T1 sequence
notes: human ICOS ectodomain, UniProtKB Q9Y6W8, N110Q removes the N-linked glycosylation site; limits are those of the ectodomain construct of the methods; also called ICOS N110Q; ICOS N110 glycan knock-out mutant; source: HEK 293F, transiently transfected, purified (as the ICOS ectodomain); not shown: Venus (monomeric variant), C-terminal, cleaved; His6, C-terminal, cleaved
B8: prezalumab Fab (purified, for BLI) (Fab, V domains shown)
VH: EVQLVESGGGLVQPGGSLRLSCAASGFTFSSYWMSWVRQAPGKGLEWVAYIKQDGNEKYYVDSVKGRFTISRDNAKNSLYLQMNSLRAEDTAVYYCAREGILWFGDLPTFWGQGTLVTVSS
VL: DIQMTQSPSSLSASVGDRVTITCRASQGISNWLAWYQQKPEKAPKSLIYAASSLQSGVPSRFSGSGSGTDFTLTISSLQPEDFATYYCQQYDSYPRTFGQGTKVEIK
notes: Fab heavy chain of prezalumab; Fab light chain of prezalumab; Purified on KappaSelect; also called humanized monoclonal anti ICOS-L antibody; source: HEK 293F, transiently co-transfected LC and HC, purified (KappaSelect, MonoS, Superdex 200)
B9: prezalumab Fab (co-expressed with ICOS-L and VNAR, for the crystal structure) (Fab, V domains shown)
VH: B8 VH
VL: B8 VL
notes: as the heavy chain of m14; as the light chain of m14; source: HEK 293S (Gnt I-/-), co-transfected with ICOS-L and VNAR, complex purified

How the values were obtained:
[1] = molecular target: T1, human ICOS ectodomain N110Q, …; assay: BLI
[2] = molecular target: T2, human ICOS ectodomain (residues …); assay: BLI
[3] = molecular target: T8, human ICOS ectodomain (residues 21-138), His-tagged, immobilised on Ni-NTA biosensors (human, UniProt Q9Y6W8); assay: BLI; His-tagged ICOS or ICOS-L on Ni-NTA biosensors, Fabs as analytes (prezalumab 1:2 serial dilutions from 31 nM); PBS pH 7.4, 0.01% BSA, 0.002% Tween; 1:1 fit; details: both partners purified
T8 construct: human ICOS ectodomain, UniProtKB Q9Y6W8, residues 21-138, followed by a TEV cleavage site; The His6 tag of the vector lies C-terminal of TEV site and Venus, so the His-tagged form used for loading is probably the undigested ICOS-TEV-Venus-His6 fusion; also called inducible T-cell co-stimulator; CD278; source: HEK 293F, transiently transfected, purified from the supernatant (HisTrap Ni-NTA); not …

[4] = molecular target: T1, human ICOS ectodomain N110Q, …; assay: BLI; remark: listed apart in the source
[5] = molecular target: T2, human ICOS ectodomain (residues …); assay: BLI
[6] = molecular target: T9, human ICOS C136A C137A N23Q (residues 21-138), crystallised with STIM003 Fab (human, UniProt Q9Y6W8, C136A | C137A | N23Q); assay: crystal structure; ICOS C136A C137A N23Q/STIM003 Fab complex, co-expressed and co-purified, then incubated 1:5 with anti-kappa VHH and gel filtered, 2.38 A; 0.2 M di-sodium hydrogen phosphate, 20% PEG 3350; details: both partners purified
T9 construct: human ICOS ectodomain, UniProtKB Q9Y6W8, residues 21-138 with C136A, C137A and N23Q; not shown: Venus (monomeric variant), C-terminal, cleaved; His6, C-terminal, cleaved
T9 sequence (Q9Y6W8 21-138 N23Q/C136A/C137A): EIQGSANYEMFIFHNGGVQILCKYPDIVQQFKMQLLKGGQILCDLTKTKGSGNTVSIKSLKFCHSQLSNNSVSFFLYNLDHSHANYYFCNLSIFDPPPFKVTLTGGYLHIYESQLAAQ

[7] = molecular target: T3, human ICOS ectodomain N110Q (N110 …); assay: BLI
[8] = molecular target: T4, human ICOS ectodomain (residues …); assay: BLI; ICOS-L immobilized
[9] = molecular target: T3, human ICOS ectodomain N110Q (N110 …); assay: BLI; remark: listed apart in the source
[10] = molecular target: T4, human ICOS ectodomain (residues …); assay: BLI; ICOS-L immobilized
[11] = molecular target: T5, human ICOS-L ectodomain (residues …); assay: crystal structure; ICOS (21-129)/ICOS-L (19-248)/VNAR complex, co-expressed and co-purified, 3.3 A; 0.1 M HEPES pH 7.0, 30% Jeffamine ED-2001; details: both partners purified
[12] = molecular target: T6, human ICOS-L ectodomain (residues …); assay: BLI; His-tagged ICOS on Ni-NTA biosensors (0.8 nm), untagged ICOS-L as analyte, 1:2 serial dilutions from 500 nM; PBS pH 7.4, 0.01% BSA, 0.002% Tween; 180 s association and dissociation; 1:1 fit; details: both partners purified
[13] = molecular target: T7, human ICOS-L ectodomain (residues …); assay: BLI; His-tagged ICOS-L on Ni-NTA biosensors (0.8 nm), untagged ICOS (wild-type and mutants) as analyte, 1:2 serial dilutions from 125 nM; PBS pH 7.4, 0.01% BSA, 0.002% Tween; 1:1 fit; apparent constant (avidity of the ICOS homodimer); details: both partners purified
[14] = molecular target: B3; assay: BLI
[15] = molecular target: T10, human ICOS-L ectodomain (residues 19-248), His-tagged, immobilised on Ni-NTA biosensors (human, UniProt O75144); assay: BLI; His-tagged ICOS or ICOS-L on Ni-NTA biosensors, Fabs as analytes (prezalumab 1:2 serial dilutions from 31 nM); PBS pH 7.4, 0.01% BSA, 0.002% Tween; 1:1 fit; details: both partners purified
T10 construct: also called ICOS ligand; CD275; source: HEK 293F, transiently transfected, purified from the supernatant (HisTrap Ni-NTA); not shown: His6, C-terminal, kept

[16] = molecular target: B3; assay: BLI
[17] = molecular target: T11, human ICOS-L ectodomain (residues 19-248), crystallised in complexes (human, UniProt O75144); assay: crystal structure; ICOS-L/prezalumab Fab/VNAR complex, co-expressed and co-purified, 3.15 A; 0.2 M di-ammonium tartrate, 20% PEG 3350; details: both partners purified
T11 construct: not shown: Venus (monomeric variant), C-terminal, cleaved; His6, C-terminal, cleaved

Binder: B1
koff [1]: 0.001 s⁻¹ | koff [2]: 0.00072 s⁻¹ | binding result [3]: binds | Kd [4]: 1.8 nM | Kd [5]: 2 nM

Binder: B2
binding result [6]: binds

Binder: B3
koff [7]: 0.00071 s⁻¹ | koff [8]: 0.0012 s⁻¹ | Kd [9]: 0.7 nM | Kd [10]: 3 nM

Binder: B4
stoichiometry N [11]: 1

Binder: B5
Kd [12]: 722 nM | koff [12]: 0.16 s⁻¹

Binder: B6
Kd [13]: 10 nM

Binder: B7
fold improvement in binding affinity against WT ICOS [13]: 4.3 fold

Binder: B8
koff [14]: 0.0045 s⁻¹ | binding result [15]: binds | Kd [16]: 5.5 nM

Binder: B9
binding result [17]: binds
